Earlier results, collected in patent US20150056205A1, “STEROID SPARING AGENTS AND METHODS OF USING SAME” (BIOGEN IDEC MA INC., priority 2004, published 2015).

Legend:
VLA-4 = VLA-4 (Homo sapiens, UniProt P13612); conditions: cited from earlier work
α4 subunit of VLA-4 = target: T1, α4 subunit of VLA-4 (Homo sapiens, UniProt P13612); conditions: rat brain cells stimulated with tumor necrosis factor; cited from earlier work
T1 construct: endogenous in cells; host or cells: human lymphocytes (adhering to TNF-stimulated rat brain cell cultures)

B1: mu MAb 21.6: mouse monoclonal antibody specific for the α4 subunit of VLA-4; donor immunoglobulin for the humanized antibodies (antibody, V domains shown)
VH: MKCSWVMFFLMAVVTGVNSEVQLQQSGAELVKPGASVKLSCTASGFNIKDTYIHCVKQRPEQGLEWIGRIDPANGYTKYDPKFQGKATITADTSSNTAYLQLSSLTSEDTAVYFCAREGYYGNYGVYAMDYWGQGTSVTV
VL: DIQMTQSPSSLSASLGGKVTITCKTSQDINKYMAWYQHKPGKRPRLLIHYTSALQPGIPSRFSGSGSGRDYSFNISNLEPEDIATYYCLQYDNLWTFGGGTKLEIK
VLA-4
  binding affinity for VLA-4: about 10^9 M^−1
α4 subunit of VLA-4
  inhibition of human lymphocyte binding to tissue cultures of rat brain cells: inhibit human lymphocyte binding
